Measurements from US20210386829A1, “COMPOSITIONS AND METHODS FOR MODULATING CGRP SIGNALING TO REGULATE INNATE LYMPHOID CELL INFLAMMATORY RESPONSES” (The Broad Institute, Inc., priority 2018, published 2021).

Tested on: lung-resident ILCs
Experiment: SMART-Seq2 plate-based scRNA-seq of lung-resident ILCs from PBS-, IL-25- or IL-33-treated mice, differential gene expression by logistic regression (Tables 3, 4)
Type: in vivo, mouse
Excerpt: Mice and in vivo ILC activation. C57B1/6J mice were purchased from the Jackson Laboratory. Nmur1-LacZ reporter mice with a LacZ cassette knocked into the Nmur1 locus were rederived from Nmur1^tm1.1(KOMP)Vlcg sperm obtained from the trans-NIH Knock-Out Mouse Project (KOMP) Repository. NMU-deficient mice (NMU-KO) were rederived from B6.129S2-Nmu<tm1Mko> embryos from the RIKEN BioResource Center. For experiments with Nmur1-LacZ (Nmur1-KO) and NMU-KO mice, littermates that were either homozygous or heterozygous for the wild type allele were used as controls. Mice were housed under specific-pathogen-free conditions. For experiments, mice were matched for sex and age, and most mice were 6-10 weeks old. Where indicated, mice were anesthetized with Isoflurane and treated intranasally with the indicated stimuli (500 ng IL-25, 500 ng IL-33, or 20 μg Neuromedin U) daily for three consecutive days. The total administered volume was 20 μl for all conditions. Mice were randomly assigned to treatment groups after matching for sex and age. […] Mice were treated intranasally with 10 μg HDM on day 0, 7, 8, and 9, prior to sacrifice on day 10. All experiments were conducted in accordance with animal protocols approved by the Harvard Medical Area Standing Committee on Animals or BWH IACUC.
Fluorescence-activated cell sorting of innate lymphoid cells. After dissociation, single cell suspensions were incubated with CD90.2 MicroBeads (Miltenyi Biotec) on ice and enriched for CD90.2^+ cells by magnetic separation using LS columns according to the manufacturer's protocol. CD90.2^+ lung cells were then stained on ice with antibodies for sorting. ILCs were defined as 7AAD^− CD45^+ CD90.2^+ CD127^+ Lineage (CD11b, CD11c, CD19, NK1.1, […], CD4, CD8a, TCRβ, TCRγδ)^− cells and sorted on a BD FACS Aria (BD Biosciences).
For full-length scRNA-Seq, single ILCs were sorted into 96-well plates containing 5 ul TCL Buffer (QIAGEN) with 1% 2-Mercaptoethanol, centrifuged and frozen at −80° C. SMART-Seq2 protocol was carried out as previously described^23 with minor modifications in the reverse transcription step. cDNA was amplified with 22 cycles and fragmented with one-eighth of the standard Illumina NexteraXT reaction volume. Single-cell libraries were pooled and paired-end sequenced (38 bp×2) with a 75 cycle Nextseq 500 high output V2 kit.
Analysis of SMART-Seq2 plate-based scRNA-Seq data. Reads were aligned to mm10 using Kallisto (Bray, N. L., Pimentel, H., Meisted, P. & Pachter, L. Near-optimal probabilistic RNA-seq quantification. Nat Biotechnol 134, 525-527, doi:10.1038/nbt.3519 (2016)) quant, version 0.42.3. The R package tximport (Soneson, C., Love, M. I. & Robinson, M. D. Differential analyses for RNA-seq: transcript-level estimates improve gene-level inferences [version 2; referees: 2 approved]. F1000Research 4, doi:10.12688/f1000research.7563.2 (2016)), version 1.2.0, was used to convert the output to gene counts and traditional TPM values. Because of the variability in read counts per cell across plates, even from the same condition, as well as in the number of genes per cell across conditions, QC was performed for each of eight plates individually in order to remove cells that were outliers with respect to either measure. Out of 752 cells, 606 cells met QC criteria (234 from control, 152 from IL-25 treated mice, and 220 from IL-33 treated mice), and the number of genes per cell in this set ranged from 1,625 to 6,375. Genes that were not expressed with log(TPM)>2.5 in at least two cells were removed from further analysis. Subsequent analysis proceeded analogously to the droplet-based RNA-seq analysis, with parameter settings that reflected both the wider dynamic range of expression and much smaller cell numbers. The minimum ILC signature score required in ILC type assignment was 0.3. Variable genes were identified by running MeanVarPlot with x.low.cutoff=0.1, y.cutoff=1.5, and x.high.cutoff=10, resulting in a set of 519 genes. […]

B1: IL25 (protein, UniProt Q8VHH8 17-169, looked up)
Interleukin-25: VSLRIQEGCSHLPSCCPSKEQEPPEEWLKWSSASVSPPEPLSHTHHAESCRASKDGPLNSRAISPWSYELDRDLNRVPQDLYHARCLCPHCVSLQTGSHMDPLGNSVPLYHNQTVFYRRPCHGEEGTHRRYCLERRLYRVSLACVCVRPRVMA
B1 gave a 0610031J06Rik expression coeff of 0.555, a 1700017B05Rik expression coeff of −1.49 and a 1700113H08Rik expression coeff of −0.86. It also gave a 4632428N05Rik expression coeff of 1.28, an AA467197 expression coeff of −0.724 and an AI593442 expression coeff of −2.55. It also gave an AI836003 expression coeff of −0.781, an AW112010 expression coeff of 0.787 and an Abtb2 expression coeff of 0.292. For the same molecule, the Acot7 expression coeff was 0.807, the Adrbk1 expression coeff was 0.798 and the Adsl expression coeff was −1.77. It also gave an Ahcyl2 expression coeff of −1.01, an Amd1 expression coeff of −0.74 and an Anxa2 expression coeff of 0.693. The Ap3d1 expression coeff was 0.719, the Arf5 expression coeff was 0.592 and the Arhgap1 expression coeff was 1.34. For the same molecule, the Arhgap26 expression coeff was 0.821, the Asl expression coeff was 1.17 and the Asph expression coeff was −1.27. It also gave an Atp8b4 expression coeff of 1, an Atxn7l3b expression coeff of 0.557 and a Bcl2a1d expression coeff of 0.357. The Bcl3 expression coeff was 1.33, the Bcl6 expression coeff was 1.29 and the Bmp2 expression coeff was −0.856. It also gave a Brix1 expression coeff of −0.00742, a C1qbp expression coeff of −0.742 and a Cap1 expression coeff of 1.28. It also gave a Cblb expression coeff of 1.08, a Ccdc50 expression coeff of 1.05 and a Ccdc142 expression coeff of −1.86. The Ccng1 expression coeff was 0.622, the Ccr2 expression coeff was −1.53 and the Cd247 expression coeff was 1.16. It also gave a Chdh expression coeff of −0.136, a Chordc1 expression coeff of 1.4 and a Chst11 expression coeff of −0.0352. The Cirbp expression coeff was −1.41, the Commd10 expression coeff was −0.867 and the Cox10 expression coeff was 0.786. It also gave a Cpsf7 expression coeff of 0.986, a Crlf2 expression coeff of 0.355 and a Csf1 expression coeff of −1.01. It also gave a Cst7 expression coeff of −0.0555, a Ctla4 expression coeff of 1.48 and a Ctsw expression coeff of −0.0379. It also gave a Cybrd1 expression coeff of −0.158, a Dcaf12 expression coeff of 0.717 and a Ddrgk1 expression coeff of −0.21. The Ddx20 expression coeff was −1.24, the Ddx58 expression coeff was 0.528 and the Dennd5a expression coeff was 0.929. It also gave a Dgka expression coeff of −0.0503, a Dhx35 expression coeff of −1.63 and a Dhx37 expression coeff of −0.288. For the same molecule, the Dhx58 expression coeff was 2.3, the Dkk3 expression coeff was −0.0269 and the Dock10 expression coeff was −0.792. The E030030I06Rik expression coeff was −0.87, the Ecm1 expression coeff was −0.0192 and the Endod1 expression coeff was 0.398. For the same molecule, the Epsti1 expression coeff was 1.79, the Eva1b expression coeff was 0.99 and the Exosc4 expression coeff was −0.31. The Extl3 expression coeff was −0.16, the Fam118a expression coeff was −0.764 and the Fbxl21 expression coeff was 12.2. It also gave a Ffar2 expression coeff of 1.36, a Fhl2 expression coeff of −1.07 and a Fosb expression coeff of 0.156. The Foxo3 expression coeff was 2.06, the Fus expression coeff was −0.388 and the Gal3st3 expression coeff was −1.01. For the same molecule, the Gba expression coeff was −0.05, the Gbp4 expression coeff was 0.318 and the Gbp6 expression coeff was 0.949. It also gave a Gbp9 expression coeff of 0.745, a Gga1 expression coeff of 0.739 and a Gigyf1 expression coeff of −0.844. It also gave a Glrx expression coeff of 0.346, a Gm12250 expression coeff of 3.54 and a Gnai2 expression coeff of 0.501. For the same molecule, the Gng2 expression coeff was 1.06, the Gnl3l expression coeff was −0.617 and the Gp49a expression coeff was 1.04. It also gave a Gpr108 expression coeff of 0.205, a Grn expression coeff of −0.326 and a Gskip expression coeff of 0.645. The Gucd1 expression coeff was −0.0721, the H2-T9 expression coeff was 0.437 and the H2-T10 expression coeff was 0.799. The H2-T22 expression coeff was 0.0651, the Herc6 expression coeff was 0.579 and the Hpcal1 expression coeff was −0.169. The Hsph1 expression coeff was 0.237, the Idh2 expression coeff was −0.56 and the Ifi35 expression coeff was 0.307. For the same molecule, the Ifngr2 expression coeff was −0.761, the Ifrd2 expression coeff was −1.53 and the Igfbp4 expression coeff was −2.9. It also gave an Igsf5 expression coeff of −0.93, an Il2rb expression coeff of 0.699 and an Il5 expression coeff of 1.4. The Il13 expression coeff was 1.61, the Impact expression coeff was −1.46 and the Inpp1 expression coeff was 1.79. It also gave an Inpp4b expression coeff of −0.752, an Inpp5b expression coeff of 0.937 and an Irf4 expression coeff of 1.11. It also gave an Irf7 expression coeff of 0.423, an Isg15 expression coeff of 2.03 and an Isg20 expression coeff of 1.54. It also gave an Itgae expression coeff of −0.182, a Kit expression coeff of −0.406 and a Krit1 expression coeff of 0.612. It also gave a Lamp2 expression coeff of 0.692, a Lancl1 expression coeff of −1.11 and a Lat2 expression coeff of −0.0259. For the same molecule, the Lcmt2 expression coeff was −2.32, the Lgals3bp expression coeff was 0.804 and the Lgals3 expression coeff was 0.303. It also gave a Lilrb4 expression coeff of 0.943, a Lpcat2 expression coeff of −0.773 and a Lsm6 expression coeff of −0.616. It also gave a Lxn expression coeff of 0.065, a Ly6a expression coeff of 0.412 and a Map2k4 expression coeff of 1.89. For the same molecule, the Marf1 expression coeff was 3.17.
